Molecular target: T1, transporter associated with antigen processing (TAP), heterodimer of TAP1 and TAP2 (human, UniProt Q03518 1-748; Q03519 1-686)
T1 construct: TAP1, human; TMD0 is in the construct (no density seen for it); TAP2, human; model holds residues 130-681; also called human TAP; source: lysed cells incubated with purified ICP47, solubilised in DDM, purified (IgG Sepharose, Superose 6); not shown: Protein A, C-terminal, cleaved
T1 sequence 1: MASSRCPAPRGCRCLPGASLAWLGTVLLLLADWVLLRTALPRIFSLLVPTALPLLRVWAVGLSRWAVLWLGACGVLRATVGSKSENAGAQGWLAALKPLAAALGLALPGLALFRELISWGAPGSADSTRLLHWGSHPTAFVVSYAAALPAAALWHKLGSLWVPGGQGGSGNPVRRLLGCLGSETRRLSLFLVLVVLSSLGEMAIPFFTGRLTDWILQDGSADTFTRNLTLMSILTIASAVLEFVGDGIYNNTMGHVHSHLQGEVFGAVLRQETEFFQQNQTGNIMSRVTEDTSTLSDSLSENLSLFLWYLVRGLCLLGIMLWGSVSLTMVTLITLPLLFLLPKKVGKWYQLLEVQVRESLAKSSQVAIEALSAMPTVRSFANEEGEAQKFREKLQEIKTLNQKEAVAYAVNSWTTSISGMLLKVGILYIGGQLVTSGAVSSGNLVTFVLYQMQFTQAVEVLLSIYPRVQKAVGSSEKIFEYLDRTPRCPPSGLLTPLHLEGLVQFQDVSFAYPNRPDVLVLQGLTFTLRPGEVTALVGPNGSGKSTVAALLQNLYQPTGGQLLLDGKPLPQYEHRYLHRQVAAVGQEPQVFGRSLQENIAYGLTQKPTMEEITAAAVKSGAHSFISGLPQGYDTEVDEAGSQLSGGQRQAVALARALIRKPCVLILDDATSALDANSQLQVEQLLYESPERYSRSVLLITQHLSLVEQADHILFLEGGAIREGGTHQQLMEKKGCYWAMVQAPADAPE
T1 sequence 2: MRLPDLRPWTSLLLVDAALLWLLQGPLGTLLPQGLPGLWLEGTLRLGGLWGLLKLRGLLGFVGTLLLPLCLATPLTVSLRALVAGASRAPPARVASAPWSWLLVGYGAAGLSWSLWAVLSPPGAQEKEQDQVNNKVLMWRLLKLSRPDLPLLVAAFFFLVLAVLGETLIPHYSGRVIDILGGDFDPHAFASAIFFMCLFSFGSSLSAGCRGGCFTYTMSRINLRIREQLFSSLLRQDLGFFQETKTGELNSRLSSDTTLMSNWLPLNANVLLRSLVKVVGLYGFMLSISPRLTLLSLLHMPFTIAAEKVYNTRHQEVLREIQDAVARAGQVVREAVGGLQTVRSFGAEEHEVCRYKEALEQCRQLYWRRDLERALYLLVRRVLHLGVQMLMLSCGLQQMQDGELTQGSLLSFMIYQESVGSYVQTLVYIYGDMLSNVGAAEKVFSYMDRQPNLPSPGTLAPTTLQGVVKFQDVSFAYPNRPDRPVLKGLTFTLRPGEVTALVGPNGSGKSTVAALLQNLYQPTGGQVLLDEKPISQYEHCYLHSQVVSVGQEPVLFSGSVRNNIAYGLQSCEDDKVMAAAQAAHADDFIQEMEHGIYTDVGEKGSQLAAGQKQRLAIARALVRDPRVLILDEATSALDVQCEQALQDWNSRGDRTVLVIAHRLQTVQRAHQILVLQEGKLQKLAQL
Experiment: cryo-EM structure; purified TAP/ICP47 complex (2 mg/ml) in 20 mM Hepes pH 7.4, 150 mM NaCl, 2 mM TCEP, 1 mM DDM, 1 mM C12E8; complex formed by incubating lysed Pichia cells co-expressing TAP1 and TAP2 with purified ICP47; 4.0 Å
Settings: both partners purified

B1: ICP47 of herpes simplex virus 1 (natural protein)
chain: MSWALEMADTFLDTMRVGPRTYADVRDEINKRGREDREAARTAVHDPERPLLRSPGLLPEIAPNASLGVAHRRTGGTVTDSPRNPVTR
notes: ICP47, HSV-1; the N-terminal 55 residues are ordered and the C-terminal 33 residues have no density (88 residues together); also called HSV-1 ICP47; source: E. coli, purified via the GST tag
binding result: binds

— paper PMC5199193, “Structure of the transporter associated with antigen processing trapped by herpes simplex virus” (eLife, 2016)
